Reference: article PMC8463545 (2021)

T1: RpfG-MBP (Lysobacter enzymogenes)
T1 chain: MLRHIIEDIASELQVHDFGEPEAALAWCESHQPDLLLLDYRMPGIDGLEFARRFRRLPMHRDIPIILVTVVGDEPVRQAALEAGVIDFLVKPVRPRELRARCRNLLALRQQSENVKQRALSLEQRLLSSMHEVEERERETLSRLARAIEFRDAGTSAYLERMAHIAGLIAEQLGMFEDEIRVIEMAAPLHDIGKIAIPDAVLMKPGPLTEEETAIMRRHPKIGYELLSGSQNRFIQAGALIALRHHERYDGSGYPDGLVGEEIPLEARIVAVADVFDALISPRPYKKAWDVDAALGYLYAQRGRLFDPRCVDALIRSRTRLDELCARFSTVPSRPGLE

B1: HtsH2C-HA-His (domain or fragment)
chain: not shown
modifications: Phosphorylated as purified (CIAP-sensitive). Primers give (M)AKTRFL... to ...DAADAP (C-terminus). The candidate lists no features, so the start is estimated from the paralogues' fragment lengths and may be off by a few residues. Assignment of this entry to HtsH2 is inferred. The entry is probably not from strain OH11.
B2: HtsH1C-Flag-His (domain or fragment)
chain: not shown
modifications: Phosphorylated as purified (CIAP-sensitive). Limits from the expression primers: (M)AKTRFL... to ...LFEREA, just before the His-kinase domain to the C-terminus. The start codon Met and Flag/His tags are left out. Positions are inferred from the candidate's domain features. The entry is probably not from strain OH11.
B3: HtsH3C-Myc-His (domain or fragment)
chain: not shown
modifications: Phosphorylated as purified (CIAP-sensitive). Primers give (M)AKTRFL... to ...ARRGEG (C-terminus). Positions are inferred from the candidate's His-kinase domain start. Assignment of this entry to HtsH3 is inferred. The entry is probably not from strain OH11.

Columns and labels:
RpfG-MBP [1] = molecular target: T1, RpfG-MBP; assay: SPR
RpfG-MBP [2] = molecular target: T1, RpfG-MBP; assay: SPR

Binder | Ka (RpfG-MBP [1]) [M⁻¹] | koff (RpfG-MBP [2]) [s⁻¹]
B1 | 3.34e+06 | 0.00129
B2 | 1.5e+07 | 0.00118
B3 | 5.96e+06 | 0.000738
